Laboratory results reported in patent US20140087995A1 (published 2014).
Values belong to the binder of their own block, whether it stands above or below them. Numbered stars: 1 amine (or outer) side, 2 acyl side, 3 side chain; on linkers, the order of the positions; unused ones are H or OH. Bridge positions count the residues as written; N and C are the ends. Side chains are listed from the residue outwards. Ends that are not written are not given here. * marks the point of attachment. C20 diacid = O=C(O)CCCCCCCCCCCCCCCCCCC(=O)*; γGlu = O=C(O)[C@H](CCC(=O)[*:2])N[*:1]; C14 diacid = O=C(O)CCCCCCCCCCCCC(=O)*

Experiments:
[1] = target: T1, human calcitonin receptor (human, UniProt P30988 25-474); experiment: ratio of hCTR IC50 to hAmylin-R IC50 (reference: human amylin receptor)
T1 construct: whole, on cells; Used as cell membranes; also called hCTR; hCT
T1 sequence (looked up): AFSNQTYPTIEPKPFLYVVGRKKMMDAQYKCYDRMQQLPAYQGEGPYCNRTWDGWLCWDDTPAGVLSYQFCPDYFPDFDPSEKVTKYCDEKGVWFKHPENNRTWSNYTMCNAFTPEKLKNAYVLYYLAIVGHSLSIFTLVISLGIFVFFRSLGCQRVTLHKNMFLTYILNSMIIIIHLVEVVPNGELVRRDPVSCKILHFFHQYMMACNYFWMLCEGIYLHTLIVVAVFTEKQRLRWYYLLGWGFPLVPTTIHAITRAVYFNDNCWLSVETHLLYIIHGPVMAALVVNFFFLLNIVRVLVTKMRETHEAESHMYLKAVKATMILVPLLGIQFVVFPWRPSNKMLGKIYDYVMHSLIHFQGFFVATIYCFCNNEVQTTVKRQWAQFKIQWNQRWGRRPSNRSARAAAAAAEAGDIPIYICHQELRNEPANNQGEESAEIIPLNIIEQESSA
In short: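 IC₅₀ values were derived by one-site competition analysis of SPA counts. Cell membranes (35 ng/μL) with SPA beads were incubated with test compounds for 120 min at 25° C in Hepes buffer, pH 7.4, containing CaCl2, MgCl₂, OA and Tween20.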

[2] = target: T2, human amylin receptor (amylin 3(a) receptor: human calcitonin receptor with RAMP-3) (human, UniProt P30988 25-474; O60896 24-148); experiment: SPA competition on BHK cell membranes, 125I-rat amylin as radioligand (Assay V)
T2 construct: whole, on cells; Used as cell membranes of the Amylin 3(a)/CRE-luc BHK cells; the species of RAMP-3 is only implied by the name human amylin receptor; also called hAmylin-R; hAmylinR
T2 sequence (looked up) 1: T1 sequence (looked up)
T2 sequence (looked up) 2: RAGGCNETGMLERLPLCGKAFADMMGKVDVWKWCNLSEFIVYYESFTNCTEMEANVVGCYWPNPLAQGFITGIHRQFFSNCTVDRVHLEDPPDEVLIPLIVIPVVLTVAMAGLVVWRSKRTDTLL
Procedure: The binding assay was performed using scintillation proximity assay (SPA) beads (RPNQ0001) from PerkinElmer and cell membranes from the Amylin 3(a)/CRE-luc cells (as described in Assay (II)) were used. Membranes were prepared in the following way; the cells were rinsed with PBS and incubated with Versene for approximately 5 min before harvesting. The cells were flushed with PBS and the cell-suspension was centrifuged for 5 min at 1000 rpm. Cells were homogenized (ultrathurrax) in a buffer containing 20 mM Na-HEPES and 10 mM EDTA (pH 7.4) and centrifuged at 20.000 rpm for 15 min. The resulting pellet was resuspended, homogenized and centrifuged (20.000 rpm, 15 min) in a buffer containing 20 mM Na-HEPES and 0.1 mM EDTA (pH 7.4, buffer 2). The resulting pellet was resuspended in buffer 2 and protein concentration was measured (BCA protein Assay, Pierce). The homogenate was kept cold during the whole procedure. The membranes were kept at −80° C. until use. The assay was performed in a 384 well Optiplate (PerkinElmer) in a total volume of 40 ul. Membranes were mixed with SPA beads. Final concentration of membranes 35 ng/μL final and SPA beads was 0.05 mg/well. Test-compounds were dissolved in DMSO and further diluted in assay buffer (50 mM Hepes, pH 7.4, 1 mM CaCl2, 5 mM MgCl₂, 0.1% OA and 0.02% Tween20). […] The final mixture was incubated with shaking at 400 rpm for 120 min at 25° C. prior to centrifugation (1500 rpm, 10 min). Samples were analyzed on TopCounter™ (Packard). The IC₅₀ was calculated using (one site binding competition analysis) GraphPad Prism5 as a measure of receptor affinity.

[3] = target: T1, human calcitonin receptor; experiment: SPA competition on BHK cell membranes, 125I-calcitonin as radioligand (Assay VII)
In short: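 BHK hCTR membranes 35 ng/μL + SPA beads 0.05 mg/well; buffer 50 mM Hepes pH 7.4, 1 mM CaCl2, 5 mM MgCl₂, 0.1% OA, 0.02% Tween20. 120 min, 25° C., shaking. Scintillation count; IC50 by one-site binding competition.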

Ratio hCT/hAmylin binding [1]: 91.8
IC50 [2]: 0.876 nM
IC50 [3]: 80.4 nM
B1: N^ε1-[(4S)-4-carboxy-4-(19-carboxynonadecanoylamino)butanoyl]-[His14,Arg17,Pro21,Pro27,Arg34]-h-amylin (peptide)
peptide: K([γGlu-C20 diacid])CNTATCATQRLAHFLRHSSPNFGAIPSSTNVGRNTY-NH2
modifications: disulfide 2-7; N-terminus assumed
SMILES: CC[C@H](C)[C@H](NC(=O)[C@H](C)NC(=O)CNC(=O)[C@H](Cc1ccccc1)NC(=O)[C@H](CC(N)=O)NC(=O)[C@@H]1CCCN1C(=O)[C@H](CO)NC(=O)[C@H](CO)NC(=O)[C@H](Cc1c[nH]cn1)NC(=O)[C@H](CCCNC(=N)N)NC(=O)[C@H](CC(C)C)NC(=O)[C@H](Cc1ccccc1)NC(=O)[C@H](Cc1c[nH]cn1)NC(=O)[C@H](C)NC(=O)[C@H](CC(C)C)NC(=O)[C@H](CCCNC(=N)N)NC(=O)[C@H](CCC(N)=O)NC(=O)[C@@H](NC(=O)[C@H](C)NC(=O)[C@@H]1CSSC[C@H](NC(=O)[C@@H](N)CCCCNC(=O)CC[C@H](NC(=O)CCCCCCCCCCCCCCCCCCC(=O)O)C(=O)O)C(=O)N[C@@H](CC(N)=O)C(=O)N[C@@H]([C@@H](C)O)C(=O)N[C@@H](C)C(=O)N[C@@H]([C@@H](C)O)C(=O)N1)[C@@H](C)O)C(=O)N1CCC[C@H]1C(=O)N[C@@H](CO)C(=O)N[C@@H](CO)C(=O)N[C@H](C(=O)N[C@@H](CC(N)=O)C(=O)N[C@H](C(=O)NCC(=O)N[C@@H](CCCNC(=N)N)C(=O)N[C@@H](CC(N)=O)C(=O)N[C@H](C(=O)N[C@@H](Cc1ccc(O)cc1)C(N)=O)[C@@H](C)O)C(C)C)[C@@H](C)O
notes: also called compound 85

Ratio hCT/hAmylin binding [1]: 28
IC50 [2]: 1.16 nM
IC50 [3]: 32.5 nM
B2: N^ε1-[(4S)-4-carboxy-4-[[(4S)-4-carboxy-4-(19-carboxynonadecanoylamino)butanoyl]amino]butanoyl]-[Glu14,Arg17,Pro21,Pro27,Arg35]-h-amylin (peptide)
peptide: K([γGlu-γGlu-C20 diacid])CNTATCATQRLAEFLRHSSPNFGAIPSSTNVGSRTY-NH2
modifications: disulfide 2-7; N-terminus assumed
SMILES: CC[C@H](C)[C@H](NC(=O)[C@H](C)NC(=O)CNC(=O)[C@H](Cc1ccccc1)NC(=O)[C@H](CC(N)=O)NC(=O)[C@@H]1CCCN1C(=O)[C@H](CO)NC(=O)[C@H](CO)NC(=O)[C@H](Cc1c[nH]cn1)NC(=O)[C@H](CCCNC(=N)N)NC(=O)[C@H](CC(C)C)NC(=O)[C@H](Cc1ccccc1)NC(=O)[C@H](CCC(=O)O)NC(=O)[C@H](C)NC(=O)[C@H](CC(C)C)NC(=O)[C@H](CCCNC(=N)N)NC(=O)[C@H](CCC(N)=O)NC(=O)[C@@H](NC(=O)[C@H](C)NC(=O)[C@@H]1CSSC[C@H](NC(=O)[C@@H](N)CCCCNC(=O)CC[C@H](NC(=O)CC[C@H](NC(=O)CCCCCCCCCCCCCCCCCCC(=O)O)C(=O)O)C(=O)O)C(=O)N[C@@H](CC(N)=O)C(=O)N[C@@H]([C@@H](C)O)C(=O)N[C@@H](C)C(=O)N[C@@H]([C@@H](C)O)C(=O)N1)[C@@H](C)O)C(=O)N1CCC[C@H]1C(=O)N[C@@H](CO)C(=O)N[C@@H](CO)C(=O)N[C@H](C(=O)N[C@@H](CC(N)=O)C(=O)N[C@H](C(=O)NCC(=O)N[C@@H](CO)C(=O)N[C@@H](CCCNC(=N)N)C(=O)N[C@H](C(=O)N[C@@H](Cc1ccc(O)cc1)C(N)=O)[C@@H](C)O)C(C)C)[C@@H](C)O
notes: also called compound 89

Ratio hCT/hAmylin binding [1]: 65.3
IC50 [2]: 1.01 nM
IC50 [3]: 66.3 nM
B3: N^-1-[(4S)-4-carboxy-4-(19-carboxynonadecanoylamino)butanoyl]-Gly[Arg1,His14,Arg17,Pro21,Pro27,His34]-h-amylin (peptide)
peptide: {C20 diacid-γGlu}-GRCNTATCATQRLAHFLRHSSPNFGAIPSSTNVGHNTY-NH2
modifications: disulfide 3-8
SMILES: CC[C@H](C)[C@H](NC(=O)[C@H](C)NC(=O)CNC(=O)[C@H](Cc1ccccc1)NC(=O)[C@H](CC(N)=O)NC(=O)[C@@H]1CCCN1C(=O)[C@H](CO)NC(=O)[C@H](CO)NC(=O)[C@H](Cc1c[nH]cn1)NC(=O)[C@H](CCCNC(=N)N)NC(=O)[C@H](CC(C)C)NC(=O)[C@H](Cc1ccccc1)NC(=O)[C@H](Cc1c[nH]cn1)NC(=O)[C@H](C)NC(=O)[C@H](CC(C)C)NC(=O)[C@H](CCCNC(=N)N)NC(=O)[C@H](CCC(N)=O)NC(=O)[C@@H](NC(=O)[C@H](C)NC(=O)[C@@H]1CSSC[C@H](NC(=O)[C@H](CCCNC(=N)N)NC(=O)CNC(=O)CC[C@H](NC(=O)CCCCCCCCCCCCCCCCCCC(=O)O)C(=O)O)C(=O)N[C@@H](CC(N)=O)C(=O)N[C@@H]([C@@H](C)O)C(=O)N[C@@H](C)C(=O)N[C@@H]([C@@H](C)O)C(=O)N1)[C@@H](C)O)C(=O)N1CCC[C@H]1C(=O)N[C@@H](CO)C(=O)N[C@@H](CO)C(=O)N[C@H](C(=O)N[C@@H](CC(N)=O)C(=O)N[C@H](C(=O)NCC(=O)N[C@@H](Cc1c[nH]cn1)C(=O)N[C@@H](CC(N)=O)C(=O)N[C@H](C(=O)N[C@@H](Cc1ccc(O)cc1)C(N)=O)[C@@H](C)O)C(C)C)[C@@H](C)O
notes: 38 residues; also called compound 100

Ratio hCT/hAmylin binding [1]: 23.5
IC50 [2]: 1.04 nM
IC50 [3]: 24.3 nM
B4: N^ε1-[(4S)-4-carboxy-4-(13-carboxytridecanoylamino)butanoyl]-[Arg17,Pro21,Pro27,His34]-h-amylin (peptide)
peptide: K([γGlu-C14 diacid])CNTATCATQRLANFLRHSSPNFGAIPSSTNVGHNTY-NH2
modifications: disulfide 2-7; N-terminus assumed
SMILES: CC[C@H](C)[C@H](NC(=O)[C@H](C)NC(=O)CNC(=O)[C@H](Cc1ccccc1)NC(=O)[C@H](CC(N)=O)NC(=O)[C@@H]1CCCN1C(=O)[C@H](CO)NC(=O)[C@H](CO)NC(=O)[C@H](Cc1c[nH]cn1)NC(=O)[C@H](CCCNC(=N)N)NC(=O)[C@H](CC(C)C)NC(=O)[C@H](Cc1ccccc1)NC(=O)[C@H](CC(N)=O)NC(=O)[C@H](C)NC(=O)[C@H](CC(C)C)NC(=O)[C@H](CCCNC(=N)N)NC(=O)[C@H](CCC(N)=O)NC(=O)[C@@H](NC(=O)[C@H](C)NC(=O)[C@@H]1CSSC[C@H](NC(=O)[C@@H](N)CCCCNC(=O)CC[C@H](NC(=O)CCCCCCCCCCCCC(=O)O)C(=O)O)C(=O)N[C@@H](CC(N)=O)C(=O)N[C@@H]([C@@H](C)O)C(=O)N[C@@H](C)C(=O)N[C@@H]([C@@H](C)O)C(=O)N1)[C@@H](C)O)C(=O)N1CCC[C@H]1C(=O)N[C@@H](CO)C(=O)N[C@@H](CO)C(=O)N[C@H](C(=O)N[C@@H](CC(N)=O)C(=O)N[C@H](C(=O)NCC(=O)N[C@@H](Cc1c[nH]cn1)C(=O)N[C@@H](CC(N)=O)C(=O)N[C@H](C(=O)N[C@@H](Cc1ccc(O)cc1)C(N)=O)[C@@H](C)O)C(C)C)[C@@H](C)O

Ratio hCT/hAmylin binding [1]: 159
IC50 [2]: 0.833 nM
IC50 [3]: 133 nM
B5: N^ε1-[(4S)-4-carboxy-4-[[(4S)-4-carboxy-4-(19-carboxynonadecanoylamino)butanoyl]amino]butanoyl]-[Arg17,Pro21,Pro27,His34]-h-amylin (peptide)
peptide: K([γGlu-γGlu-C20 diacid])CNTATCATQRLANFLRHSSPNFGAIPSSTNVGHNTY-NH2
modifications: disulfide 2-7; N-terminus assumed
SMILES: CC[C@H](C)[C@H](NC(=O)[C@H](C)NC(=O)CNC(=O)[C@H](Cc1ccccc1)NC(=O)[C@H](CC(N)=O)NC(=O)[C@@H]1CCCN1C(=O)[C@H](CO)NC(=O)[C@H](CO)NC(=O)[C@H](Cc1c[nH]cn1)NC(=O)[C@H](CCCNC(=N)N)NC(=O)[C@H](CC(C)C)NC(=O)[C@H](Cc1ccccc1)NC(=O)[C@H](CC(N)=O)NC(=O)[C@H](C)NC(=O)[C@H](CC(C)C)NC(=O)[C@H](CCCNC(=N)N)NC(=O)[C@H](CCC(N)=O)NC(=O)[C@@H](NC(=O)[C@H](C)NC(=O)[C@@H]1CSSC[C@H](NC(=O)[C@@H](N)CCCCNC(=O)CC[C@H](NC(=O)CC[C@H](NC(=O)CCCCCCCCCCCCCCCCCCC(=O)O)C(=O)O)C(=O)O)C(=O)N[C@@H](CC(N)=O)C(=O)N[C@@H]([C@@H](C)O)C(=O)N[C@@H](C)C(=O)N[C@@H]([C@@H](C)O)C(=O)N1)[C@@H](C)O)C(=O)N1CCC[C@H]1C(=O)N[C@@H](CO)C(=O)N[C@@H](CO)C(=O)N[C@H](C(=O)N[C@@H](CC(N)=O)C(=O)N[C@H](C(=O)NCC(=O)N[C@@H](Cc1c[nH]cn1)C(=O)N[C@@H](CC(N)=O)C(=O)N[C@H](C(=O)N[C@@H](Cc1ccc(O)cc1)C(N)=O)[C@@H](C)O)C(C)C)[C@@H](C)O
notes: also called compound 86
